From patent US20220025023A1 (AC IMMUNE, published 2022)
Where no end group is shown, it is not given here.

T1: TDP-3 peptide (human)
T1 construct: Irrelevant control peptide; conjugated to Luminex beads in the assay; also called TDP-43 aa 310-370; irrelevant target
T1 peptide: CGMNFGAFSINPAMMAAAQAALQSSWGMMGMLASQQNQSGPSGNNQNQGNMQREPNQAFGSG

T2: TDP-1 peptide (human)
T2 construct: Immunogen peptide; conjugated to Luminex beads in the assay; also called TDP-43 aa 212-272
T2 peptide: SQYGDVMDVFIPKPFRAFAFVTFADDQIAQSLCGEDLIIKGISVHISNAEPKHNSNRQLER

T3: TP-26 (also: biotinylated, site not given here)
T3 construct: also called TP-26 peptide
T3 peptide: FRAFAFVTFADDQIA

T4: TP-29 (also: biotinylated, site not given here)
T4 construct: also called TP-29 peptide
T4 peptide: ISVHISNAEPKHNSN

T5: TP-27 (also: biotinylated, site not given here)
T5 construct: also called TP-27 peptide
T5 peptide: ADDQIAQSLCGEDLI

T6: TP-28 (also: biotinylated, site not given here)
T6 construct: also called TP-28 peptide
T6 peptide: CGEDLIIKGISVHIS

T7: TP-31 (also: biotinylated, site not given here)
T7 construct: also called TP-31 peptide
T7 peptide: ERSGRFGGNPGGFGN

T8: TP-30 (also: biotinylated, site not given here)
T8 construct: also called TP-30 peptide
T8 peptide: PKHNSNRQLERSGRF

T9: TDP-215 peptide (human)
T9 construct: same ELISA method as for the biotinylated 15-mers
T9 peptide: GDVMDVFI

T10: TP-24 peptide (human, also: biotinylated, site not given here)
T10 construct: 15-mer of human TDP-43 from the library spanning aa 199-285; captured on streptavidin plates
T10 peptide: REFFSQYGDVMDVFI

T11: TP-25 peptide (human, also: biotinylated, site not given here)
T11 construct: 15-mer of human TDP-43 from the library spanning aa 199-285; captured on streptavidin plates
T11 peptide: VMDVFIPKPFRAFAF

T12: TDP-217 peptide (human)
T12 construct: 8-mer of human TDP-43; same ELISA method as for the biotinylated 15-mers
T12 peptide: VMDVFIPK

T13: TDP-213 peptide (human)
T13 construct: 8-mer of human TDP-43; same ELISA method as for the biotinylated 15-mers
T13 peptide: QYGDVMDV

T14: TDP-216 peptide (human)
T14 construct: 8-mer of human TDP-43; same ELISA method as for the biotinylated 15-mers
T14 peptide: DVMDVFIP

T15: TDP-224 peptide (human)
T15 construct: 8-mer of human TDP-43; same ELISA method as for the biotinylated 15-mers
T15 peptide: KPFRAFAF

T16: TDP-211 peptide (human)
T16 construct: 8-mer of human TDP-43; same ELISA method as for the biotinylated 15-mers
T16 peptide: FSQYGDVM

T17: TDP-212 peptide (human)
T17 construct: 8-mer of human TDP-43; same ELISA method as for the biotinylated 15-mers
T17 peptide: SQYGDVMD

T18: TDP-219 peptide (human)
T18 construct: 8-mer of human TDP-43; same ELISA method as for the biotinylated 15-mers
T18 peptide: DVFIPKPF

T19: TDP-222 peptide (human)
T19 construct: 8-mer of human TDP-43; same ELISA method as for the biotinylated 15-mers
T19 peptide: IPKPFRAF

T20: TDP-221 peptide (human)
T20 construct: 8-mer of human TDP-43; same ELISA method as for the biotinylated 15-mers
T20 peptide: FIPKPFRA

T21: TDP-210 peptide (human)
T21 construct: 8-mer of human TDP-43; same ELISA method as for the biotinylated 15-mers
T21 peptide: FFSQYGDV

T22: TDP-220 peptide (human)
T22 construct: 8-mer of human TDP-43; same ELISA method as for the biotinylated 15-mers
T22 peptide: VFIPKPFR

T23: TDP-218 peptide (human)
T23 construct: 8-mer of human TDP-43; same ELISA method as for the biotinylated 15-mers
T23 peptide: MDVFIPKP

T24: TDP-223 peptide (human)
T24 construct: 8-mer of human TDP-43; same ELISA method as for the biotinylated 15-mers
T24 peptide: PKPFRAFA

T25: TDP-214 peptide (human)
T25 construct: 8-mer of human TDP-43; same ELISA method as for the biotinylated 15-mers
T25 peptide: YGDVMDVF

B1: ACI-7062-412E12-Ab1 (antibody, IgG1, V domains shown)
VH: DVQLVESGGGLVQPGGSRRLSCAASGFTFSRFGMHWVRQAPEKGLEWVAYIRSGSDIIYYADSVKGRFTISRDNPENTLFLQMTSLRSEDTAMYYCARSGTTVPFDYWGQGTSLTVSS
VL: DIVMTQSPSSLAMSVGQKVTMSCKSSQSLLNSGDQKNYLAWYQQKPGQSPELLLYFASTRASGVPDRFIGSGSGTDFSLTISSVQAEDLADYFCQQHYSIPLTFGAGTKLELKR
notes: also called 412E12A2; clone 10
B2: ACI-7062-415H10-Ab2 (antibody, IgG3, V domains shown)
VH: DVQLVESGGGLVQPGGSRKLSCAASGFTFSSFGMHWVRQAPEKGLEWVAYISSGSSNIYYTDTVKGRFTISRDNPKNTLFLQMTSLRSEDTAIYYCARSGTTVPFDYWGQGTTLTVSS
VL: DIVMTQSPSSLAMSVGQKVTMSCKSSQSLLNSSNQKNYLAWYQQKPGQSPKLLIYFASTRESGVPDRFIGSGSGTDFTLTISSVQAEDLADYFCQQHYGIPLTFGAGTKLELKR
notes: also called 415H10B7; clone 17
B3: ACI-7062-414A5-Ab1 (antibody, IgG2a, V domains shown)
VH: DVQLVESGGGLVQPGGSRRLSCAASGFTFSSFGMHWVRQAPEKGLEWVAYIRSGSDIIYYADTVKGRFTISRDNPENTLFLEMTRLRSEDTAMYYCARSGTTVPFDYWGQGTSLTVSS
VL: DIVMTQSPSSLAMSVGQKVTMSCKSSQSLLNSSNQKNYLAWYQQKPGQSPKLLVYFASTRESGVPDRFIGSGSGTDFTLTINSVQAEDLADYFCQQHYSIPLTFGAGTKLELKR
notes: also called 414A5D2; clone 12
B4: ACI-7062-415C4-Ab1 (antibody, IgG1, V domains shown)
VH: QVTLKESGPGILQPSQTLSLTCSFSGFSLSTYGIGVGWIRQPSGKGLEWLAHIWWNDNKYYKTALKSRLTISKDTSNNQVFLKIASVDTADSATYYCARVYGNLYYFGYWGQGTTLTVSS
VL: DVLMTQTPLSLPVSLGDQASISCRSSQSIVHSTGNTYLEWYLQKPGQSPKLLIYKVSNRFSGVPDRFSGSGSGTDFTLKISRVEAEDLGVYYCFQGSRVPTFGAGTKLELKR
notes: also called 415C4C6; clone 14

Key:
TDP-3 peptide = biological target: T1, TDP-3 peptide; assay: Luminex bead assay, TDP-3 peptide beads (irrelevant target)
TDP-1 peptide = biological target: T2, TDP-1 peptide; assay: Luminex bead assay, antibody serial dilution, TDP-1 peptide beads
TP-26 = biological target: T3, TP-26; assay: indirect ELISA, biotinylated 15-mer on streptavidin plate, hybridoma supernatant
Description: (§1) Serum-free supernatants were harvested from stable hybridomas. The supernatants containing antibodies of interest were then screened by an indirect ELISA assay to determine epitopes. Epitopes were mapped using a library of TDP-43 15-mer peptides. Briefly, 96-well streptavidin-coated 96-well ELISA plates were incubated with 5 μg/mL of biotinylated 15-mer peptides spanning the amino acids (aa) 199-285 of human TDP-43 with 9 aa offset and 6 aa overlap. Plates were washed thoroughly with 0.05% Tween-20/PBS and then blocked with 1% bovine serum albumin (BSA) in 0.05% Tween-20/PBS for 1 hour at 37° C. The antibody contained in the hybridoma supernatant was then added at the indicated dilutions, and incubated for 2 hours at 37° C. after which the plates were washed as described previously. An AP-conjugated anti-mouse IgG secondary antibody (Jackson ImmunoResearch Laboratories, United Kingdom) was added at 1/1000 dilution in 0.05% Tween-20/PBS for 1 hour at 37° C. After the final wash, plates were incubated with pNPP (Sigma-Aldrich, Switzerland) an AP substrate solution, and read at 405 nm using an ELISA plate reader (Tecan).

TP-29 = biological target: T4, TP-29; assay: as above
Description: as §1

TP-27 = biological target: T5, TP-27; assay: as above
Description: as §1

TP-28 = biological target: T6, TP-28; assay: as above
Description: as §1

TP-31 = biological target: T7, TP-31; assay: as above
Description: as §1

TP-30 = biological target: T8, TP-30; assay: as above
Description: as §1

TDP-215 peptide = biological target: T9, TDP-215 peptide; assay: indirect ELISA, 8-mer peptide library, OD 405 nm
Description: as §1
(§2) Furthermore, antibodies were tested using an indirect ELISA on a peptide library of 8-mer peptides with 7 aa overlap covering the sequence of human TDP-43 from aa 210 to aa 231, using the same ELISA method as describe previously in this section.

TP-24 peptide = biological target: T10, TP-24 peptide; assay: indirect ELISA, biotinylated 15-mer peptide on streptavidin plate, hybridoma supernatant
Description: as §1

TP-25 peptide = biological target: T11, TP-25 peptide; assay: as above
Description: as §1

TDP-217 peptide = biological target: T12, TDP-217 peptide; assay: indirect ELISA, 8-mer peptide library
Description: as §1, §2

TDP-213 peptide = biological target: T13, TDP-213 peptide; assay: indirect ELISA, 8-mer peptide library
Description: as §1, §2

TDP-216 peptide = biological target: T14, TDP-216 peptide; assay: indirect ELISA, 8-mer peptide library
Description: as §1, §2

TDP-224 peptide = biological target: T15, TDP-224 peptide; assay: indirect ELISA, 8-mer peptide library
Description: as §1, §2

TDP-211 peptide = biological target: T16, TDP-211 peptide; assay: indirect ELISA, 8-mer peptide library
Description: as §1, §2

TDP-212 peptide = biological target: T17, TDP-212 peptide; assay: indirect ELISA, 8-mer peptide library
Description: as §1, §2

TDP-219 peptide = biological target: T18, TDP-219 peptide; assay: indirect ELISA, 8-mer peptide library
Description: as §1, §2

TDP-222 peptide = biological target: T19, TDP-222 peptide; assay: indirect ELISA, 8-mer peptide library
Description: as §1, §2

TDP-221 peptide = biological target: T20, TDP-221 peptide; assay: indirect ELISA, 8-mer peptide library
Description: as §1, §2

TDP-210 peptide = biological target: T21, TDP-210 peptide; assay: indirect ELISA, 8-mer peptide library
Description: as §1, §2

TDP-220 peptide = biological target: T22, TDP-220 peptide; assay: indirect ELISA, 8-mer peptide library
Description: as §1, §2

TDP-218 peptide = biological target: T23, TDP-218 peptide; assay: indirect ELISA, 8-mer peptide library
Description: as §1, §2

TDP-223 peptide = biological target: T24, TDP-223 peptide; assay: indirect ELISA, 8-mer peptide library
Description: as §1, §2

TDP-214 peptide = biological target: T25, TDP-214 peptide; assay: indirect ELISA, 8-mer peptide library
Description: as §1, §2

BSA = biological target: T26, BSA (bovine, UniProt P02769); assay: indirect ELISA, control coat in the 15-mer series, hybridoma supernatant
T26 construct: not specified; also called bovine serum albumin

[1] = biological target: T27, recombinant human full-length TDP-43 (human, UniProt Q13148 1-414); assay: SPR avidity (Biacore T200), TDP-43 monomer immobilised, antibody as analyte, 1:1 model
T27 construct: Recombinant full-length protein; also called FL TDP-43; recFL TDP-43
Description: Avidity measurements were performed on an SPR instrument (Biacore T200, GE Healthcare Life Sciences) using CM5 Series S sensor chips. Recombinant human FL TDP-43 monomers or aggregated recombinant human FL TDP-43 was immobilized on a CM5 chip using amine coupling, injecting at a flow rate of 5 μl/min for 420 seconds. Conditions were optimized so that less than 200 RU protein was immobilized. Binding of the antibodies and the control antibody (2E2-D3) were obtained by injecting at: 1.37, 4.11, 12.33, 37, 111, and 333 nM in 1×PBS P+ at a flow rate of 50 μl/min for 90 s contact time and 600 s dissociation phase, with three regeneration cycles of the ligand surface by 10 mM Glycine-HCl (pH 1.7). Kinetics were analyzed using a 1:1 fitting model (see FIG. 8).

[2] = biological target: T27, recombinant human full-length TDP-43; assay: Luminex bead assay, antibody serial dilution, FL TDP-43 beads

T26 sequence (P02769 25-607 limits assumed): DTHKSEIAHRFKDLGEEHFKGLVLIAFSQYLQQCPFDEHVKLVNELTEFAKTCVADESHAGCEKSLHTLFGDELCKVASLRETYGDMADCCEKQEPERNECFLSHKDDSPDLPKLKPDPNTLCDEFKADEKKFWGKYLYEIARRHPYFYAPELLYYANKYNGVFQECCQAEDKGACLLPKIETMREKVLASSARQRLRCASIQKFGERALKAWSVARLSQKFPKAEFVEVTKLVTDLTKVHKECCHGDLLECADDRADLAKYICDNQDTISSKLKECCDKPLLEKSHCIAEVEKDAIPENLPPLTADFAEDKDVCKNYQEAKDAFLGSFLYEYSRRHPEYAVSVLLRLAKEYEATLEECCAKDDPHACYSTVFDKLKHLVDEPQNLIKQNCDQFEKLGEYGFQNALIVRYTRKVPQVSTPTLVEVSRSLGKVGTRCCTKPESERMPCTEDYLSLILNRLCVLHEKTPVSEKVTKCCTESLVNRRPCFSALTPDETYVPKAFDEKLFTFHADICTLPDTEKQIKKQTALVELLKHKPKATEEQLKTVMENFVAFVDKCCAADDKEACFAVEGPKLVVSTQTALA
T27 sequence (Q13148 whole entry): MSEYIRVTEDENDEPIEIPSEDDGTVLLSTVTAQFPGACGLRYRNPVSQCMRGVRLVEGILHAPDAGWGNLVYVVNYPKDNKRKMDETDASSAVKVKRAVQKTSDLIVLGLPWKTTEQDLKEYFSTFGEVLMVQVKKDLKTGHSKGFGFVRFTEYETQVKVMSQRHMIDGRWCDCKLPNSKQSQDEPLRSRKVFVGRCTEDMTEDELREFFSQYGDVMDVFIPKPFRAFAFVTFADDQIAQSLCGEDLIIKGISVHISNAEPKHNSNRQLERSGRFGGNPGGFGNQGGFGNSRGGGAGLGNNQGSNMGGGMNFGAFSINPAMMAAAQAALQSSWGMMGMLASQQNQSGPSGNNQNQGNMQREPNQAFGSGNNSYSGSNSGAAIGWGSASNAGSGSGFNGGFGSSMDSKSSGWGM

Binder	binding result (TDP-3 peptide)	EC50 (TDP-1 peptide) [pM]	binding result (TP-26)	binding result (TP-29)	binding result (TP-27)	binding result (TP-28)	binding result (TP-31)	binding result (TP-30)	binding result (TDP-215 peptide)	OD (TP-24 peptide)	OD (TP-25 peptide)	binding result (TDP-217 peptide)	binding result (TDP-213 peptide)	binding result (TDP-216 peptide)	binding result (TDP-224 peptide)	binding result (TDP-211 peptide)	binding result (TDP-212 peptide)	binding result (TDP-219 peptide)	binding result (TDP-222 peptide)	binding result (BSA)	further results
B1	no binding	< 10	no binding	no binding	no binding	no binding	no binding	no binding	binds	3.2 O.D. (405 nm)	1.2 O.D. (405 nm)	no binding	no binding	no binding	no binding	no binding	no binding	no binding	no binding	no binding	binding result (TDP-221 peptide): no binding; binding result (TDP-210 peptide): no binding; binding result (TDP-220 peptide): no binding; binding result (TDP-218 peptide): no binding; binding result (TDP-223 peptide): no binding; binding result (TDP-214 peptide): no binding
B2	no binding	< 10	no binding	no binding	no binding	no binding	no binding	no binding	–	3.9 O.D. (405 nm)	1.2 O.D. (405 nm)	–	–	–	–	–	–	–	–	no binding	Kd [1]: 1100 pM; EC50 [2]: 160 pM
B3	no binding	< 10	no binding	no binding	no binding	no binding	no binding	no binding	binds	3.9 O.D. (405 nm)	1.2 O.D. (405 nm)	no binding	no binding	no binding	no binding	no binding	no binding	no binding	no binding	no binding	binding result (TDP-221 peptide): no binding; binding result (TDP-210 peptide): no binding; binding result (TDP-220 peptide): no binding; binding result (TDP-218 peptide): no binding; binding result (TDP-223 peptide): no binding; binding result (TDP-214 peptide): no binding
B4	no binding	< 10	no binding	no binding	no binding	no binding	no binding	no binding	binds	3.8 O.D. (405 nm)	1.2 O.D. (405 nm)	no binding	no binding	no binding	no binding	no binding	no binding	no binding	no binding	no binding	binding result (TDP-221 peptide): no binding; binding result (TDP-210 peptide): no binding; binding result (TDP-220 peptide): no binding; binding result (TDP-218 peptide): no binding; binding result (TDP-223 peptide): no binding; binding result (TDP-214 peptide): no binding
